Read-outs that look alike come from different tables or passages of the source.
Legend:
[1] = molecular target: T1, H1N1 HA (A/California/04/2009) (Influenza A virus A/California/04/2009 …, UniProt C3W5S1, strain); assay: ELISA
T1 construct: source: bought: Sino Biological

[2] = molecular target: T2, H2N2 HA (A/Japan/305/1957) (Influenza A virus A/Japan/305/1957 …, UniProt P03451, strain); assay: ELISA; settings: one partner purified
T2 construct: source: bought: Sino Biological

[3] = molecular target: T3, H3N2 HA (A/Perth/16/2009) (Influenza A virus A/Perth/16/2009 (H3N2), UniProt C6KNH7, strain); assay: ELISA; settings: one partner purified
T3 construct: also called H3N2 hemagglutinin; source: bought: Sino Biological

[4] = molecular target: T4, H5N1 HA (A/Vietnam/1194/2004) (Influenza A virus A/Vietnam/1194/2004 …, UniProt A5A5M5, strain); assay: ELISA; settings: one partner purified
T4 construct: also called H5N1 hemagglutinin; source: bought: Sino Biological

[5] = molecular target: tetanus toxoid (Clostridium tetani, production strain …, UniProt P04958)
[6] = molecular target: T4, H5N1 HA (A/Vietnam/1194/2004)

B1: H5-Ab6 (antibody, V domains shown)
VH: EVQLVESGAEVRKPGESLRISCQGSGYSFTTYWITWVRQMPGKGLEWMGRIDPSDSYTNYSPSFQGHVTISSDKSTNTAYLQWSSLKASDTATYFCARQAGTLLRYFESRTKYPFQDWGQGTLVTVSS
VL: EIVLTQSPGTLSLSPGERATLSCRASQSVSGGYLAWYQQRPGQAPRLLISGASTRATGIPDRFSGSGSGTDFTLTISGLEPEDFAVYYCQQYGDSPAYTFGQGTKVEIK
- binding result ([1]; one partner purified): binds
- binding result [2]: binds
- binding result [3]: binds
- binding result [4]: binds

B2: TT-Ab13 (antibody, V domains shown)
VH: EVQLVESGAEVKKPGESLRISCKGSGYSFTTYWIGWVRQMPGKGLEWIGIIYAGDSDTRYSPSFQGQVTMPVDKSITTAYLQWSSLKASDTAMYYCARQGDPSSYLTSGFEFWGQGTLVTVSS
VL: DIQMTQSPSTLSASVGDGVTITCRASQSISRWLAWYQQKPGKAPKLLIYQASRLESGVPSRFSGSGSGTEFTLSISSLQPDDFATYYCHQYNSYSQTFGQGTKVEIK
- binding result [5]: binds

B3: H5-Ab2 (antibody, V domains shown)
VH: EVQLVQSGAEVKKPGSSVKVSCRSSGGPFRSNAISWVRQAPGQGLEWMGGIIAVFGTVEYAQKFQGRVTITADDSRSTVYMELRSLRSDDTAFYYCASAHGYHNYGSRGYFVSWGQGTLVTVSS
VL: DIVMTQSPGTLSLSPGERATLSCRASQSVSSNYLAWYQQKLGQPPRLLIYGASSRATGIPDRFSGSGSGTDFTLTISRLEPEDYAVYYCQQYGSSPHTFGQGTKVEIK
- binding result [1]: binds

B4: H5-Ab3 (antibody, V domains shown)
VH: EVQLVESGGGLVKPGGSLRLSCAASGFTFSTYSMNWVRHAPGKGLEWVSSISSGSNYIYYADSVKGRFTISRDNAKNSLYLQMNNLRAEDTAVYHCARDRGESSYYWFDPWGQGTLVTVSS
VL: QSALTQPASVSGSPGQSITISCTGTSSDVGAYDYVSWYRQHPGEAPKLLIYDVARRPSGVSFRFSGSKSGNAASLTISGLQAEDEADYFCSSYAGTTIWVFGGGTKLTVL
- binding result [6]: binds

B5: H5-Ab4 (antibody, V domains shown)
VH: EVQLVESGGGAVQPGRSLRLSCAVSGFTFSSYGMNWVRQAPGKGLEWVAVISYDGSNTYYADSVKGRFTISRDDSKNTLFLQMNSLRADDTAVYYCAKDFQLRLLRYFDWLSSPFDHWGQGTLVTVSS
VL: DIQLTQSPGTLSLSPGERATLSCRASQSIRSNFLAWYQQTPGQGPRLLIYGASSRATGIPDRFSGSGSGTDFTLTISGLEPEDFAVYYCQQYASSPQTFGQGTKVEIK
- binding result [1]: binds
